Source: patent US20220177583A1 (University of California, published 2022)
Residue numbers refer to the chain shown, from its start.

T1: human CLDN6, endogenously expressed on cancer cell lines (human, UniProt P56747 1-220)
T1 construct: also called Endogenous CLDN6+; CLDN6 on ARK2, OVCA429, UMUC4 cells
T1 sequence: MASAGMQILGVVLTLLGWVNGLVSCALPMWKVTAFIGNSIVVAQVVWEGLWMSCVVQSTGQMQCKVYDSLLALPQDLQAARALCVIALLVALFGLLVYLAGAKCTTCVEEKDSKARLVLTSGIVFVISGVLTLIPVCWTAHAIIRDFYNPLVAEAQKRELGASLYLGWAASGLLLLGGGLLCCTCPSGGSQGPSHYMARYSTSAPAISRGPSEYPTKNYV

T2: mouse CLDN6 fused to GFP, expressed on engineered HEK293T cells (mouse, UniProt Q9Z262 1-219)
T2 construct: whole, on cells; also called HEK293T-CLDN6-mGFP Artificial CLDN6+ (mouse); murine CLDN6; not shown: GFP tag
T2 sequence (looked up): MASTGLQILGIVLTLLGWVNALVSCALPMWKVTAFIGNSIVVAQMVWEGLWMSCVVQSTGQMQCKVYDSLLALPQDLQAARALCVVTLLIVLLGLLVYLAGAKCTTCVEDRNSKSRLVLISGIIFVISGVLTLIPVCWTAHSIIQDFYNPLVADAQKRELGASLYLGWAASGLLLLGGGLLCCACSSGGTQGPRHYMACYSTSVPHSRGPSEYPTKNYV

B1: AB1-7 (antibody, V domains shown)
VH: QVQLVQSGAEVKKPGASVKMSCKASGYTFTTYTMHWVRQAPGQGLEWIGFINPSSGYTDYAQKFQGRVTLTADTSTSTVYMELSSLRSEDTAVYYCANGDYYVAYWGQGTLVTVSS
VL: DIQLTQSPSSLSASVGDRVTMTCTASSSVSSTYFHWYQQKPGKAPKLLIYSTSNLASGVPSRFSGSGSGTDYTLTISSMQPEDAATYYCHQYHRSPLTFGQGTKLEIK
notes: Humanized; also called humanized AB 1-7
B2: AB1-3 (antibody, V domains shown)
VH: B1 VH with M20V, I48M, L70M
VL: B1 VL with L4M, M21I, M79L, A84F
notes: Humanized; also called humanized AB 1-3
B3: AB1-5 (antibody, V domains shown)
VH: B1 VH with M20V, I48M, L70M
VL: B1 VL with L48W
notes: Humanized; also called humanized AB 1-5
B4: AB1-4 (antibody, V domains shown)
VH: B1 VH with M20V, I48M, L70M
VL: B1 VL
notes: Humanized; also called humanized AB 1-4
B5: AB1-11 (antibody, V domains shown)
VH: B1 VH with T74K
VL: B1 VL with L48W
notes: Humanized; also called humanized AB1-11; HU-11
B6: AB1-Chim (antibody, V domains shown)
VH: QVQLQQSAAELARPGASVKMSCKASGYTFTTYTMHWVKQRPGQGLEWIGFINPSSGYTDYNQKFKDRTTLTADKSSSTVYMQLSSLTSEDSAVYYCANGDYYVAYWGQGTLVTVSA
VL: QIVLTQSPAIMSASLGERVTMTCTASSSVSSTYFHWYQQKPGSSPKLWIYSTSNLASGVPRRFSGSASGTSYSLTISSMEAEDAATYYCHQYHRSPLTFGAGTKLELK
notes: Parental antibody prior to humanization ('chim'); also called pre-humanized form of AB1
B7: AB3-2 (antibody, V domains shown)
VH: EVQLLESGGGLVQPGGSMRLSCAASGFTFSNYWMNWVRQAPGKGLEWVAQIRLKSDNYATHYADSVKGRFTISRDDSKNTVYLQMNSLRAEDTGVYYCNDGPPSGCWGQGTLLTVSS
VL: DIQMTQSPSSLSASVGDRVTITCRISENIYSYLAWYQQKPGKAPKLLIYNAKILVEGVPSRFSGSGSGTDFTLTISSLQPEDFATYYCQHHYTVPWTFGQGTKLEIK
notes: Humanized; also called humanized AB 3-2
B8: AB3-5 (antibody, V domains shown)
VH: B7 VH with C106Y
VL: B7 VL with I48V, A84G
notes: Humanized; also called humanized AB 3-5
B9: AB9-3 (antibody, V domains shown)
VH: QVQLVQSGAEVKKPGASVKMSCKASGYRFTDYNMHWVRQAPGQGLEWIGYINPNNGGTNYAQKFQGRATLTVDTSTSTAYMELSSLRSEDTAVYYCARDYLYFFDCWGQGTLLTVSS
VL: DIQMTQSPSSLSASVGDRVTITCLASQTIGTWLAWYQQKPGKAPKLLIYAAASLADGVPSRFSGSGSGTDFTFTISSLQPEDFVTYYCQQLYSIPRTFGQGTKLEIK
notes: Humanized; also called humanized AB 9-3
B10: AB18-chim (antibody, V domains shown)
VH: QVQLKQSGPELEKPGASVKISCKASGYSFTGYNMNWVKQSNGKSLEWIGNIDPYYGGSTYNQKFTGKATLTVDKSSSTAYMQLKSLTSEDSAVYYCARERSGYVFSAMDYWGQGTSVTVSS
VL: NIMMTQSPSSLAVSAGEKVTMSCKSSQSVLFSSNQKNYLAWYQQKPGQSPRLLIYWASTRESGVPDRFTGSGSGTDFTLTISNVQAEDLAVYYCHQYLSSRTFGAGTKLELK
notes: Parental antibody prior to humanization ('chim'); also called pre-humanized form of AB18
B11: AB4-chim (antibody, V domains shown)
VH: QVQLQQSGAELARPGASVKMSCKASGYTFTSYTMHWIKQRPGQGQEWIGYINPSSTYTHYIKKFKDKATLTADKSSSTAYMQLRSLTSEDSAVYYCSRGELGGFAYWGQGTLVTVSA
VL: DVVMTQTPLSLPVSLGDQASISCRSSQSLVHSDGNTYLNWYLQKPGQSPKLLIYKVSNRFSGVPDRFSGSGSGTDFTLKIRRVEAEDLGVYFCSQSTHVPYTFGGGTKLEIK
notes: Parental antibody prior to humanization ('chim'); also called pre-humanized form of AB4
B12: AB9-chim (antibody, V domains shown)
VH: EVQLQQSGPELVKPGASVKMSCKASGYRFTDYNMHWVKQSHGKSLEWIGYINPNNGGTNYNQNFKGKATLTVNKSSSTAYMELRSLTSEDSAAYYCARDYLYFFDCWGQGTTLTVSS
VL: DIQMTQSPASQSASLGESVTITCLASQTIGTWLAWYQQKPGKSPQLLIYAAASLADGVPSRFSGSGSGTRFSFKISSLQAEDFVSYYCQQLYSIPRTFGGGTKLEIK
notes: Parental antibody prior to humanization ('chim'); also called pre-humanized form of AB9
B13: AB18-3 (antibody, V domains shown)
VH: QVQLVQSGAEVKKPGASVKVSCKASGYSFTGYNMNWVRQAPGQGLEWMGNIDPYYGGSTYAQKFQGRVTMTVDTSTSTVYMELSSLRSEDTAVYYCARERSGYVFSAMDYWGQGTLVTVSS
VL: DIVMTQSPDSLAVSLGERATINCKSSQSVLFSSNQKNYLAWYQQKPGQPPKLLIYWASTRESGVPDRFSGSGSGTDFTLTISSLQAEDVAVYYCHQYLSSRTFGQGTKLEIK
notes: Humanized; full-length IgG; also called humanized AB 18-3
B14: AB18-4 (antibody, V domains shown)
VH: B13 VH
VL: DIVMTQSPDSLAVSLGERVTMNCKSSQSVLFSSNQKNYLAWYQQKPGQPPKLLIYWASTRESGVPDRFSGSGSGTDFTLTISSVQAEDVAVYYCHQYLSSRTFGQGTKLEIK
notes: Humanized; also called humanized AB 18-4
B15: AB18-6 (antibody, V domains shown)
VH: B13 VH with V20I, M48I, V68A, M70L, V79A
VL: B14 VL
notes: Humanized; also called humanized AB 18-6
B16: AB18-5 (antibody, V domains shown)
VH: B13 VH with V20I, M48I, V68A, M70L, V79A
VL: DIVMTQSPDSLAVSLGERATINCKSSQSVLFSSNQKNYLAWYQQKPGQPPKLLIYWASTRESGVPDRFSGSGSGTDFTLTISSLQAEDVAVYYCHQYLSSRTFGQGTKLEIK
notes: Humanized; also called humanized AB 18-5
B17: AB4-6 (antibody, V domains shown)
VH: QVQLVQSGAEVKKPGASVKMSCKASGYTFTSYTMHWIRQAPGQGLEWIGYINPSSTYTHYAQKFQGRATLTADKSTSTAYMELSSLRSEDTAVYYCSRGELGGFAYWGQGTLVTVSS
VL: DVVMTQSPLSLPVTLGQPASISCRSSQSLVHSDGNTYLNWYQQRPGQSPRLLIYKVSNRFSGVPDRFSGSGSGTDFTLKISRVEAEDVGVYYCSQSTHVPYTFGQGTKLEIK
notes: Humanized; also called humanized AB 4-6
B18: AB4-10 (antibody, V domains shown)
VH: B17 VH with L45Q, A61I, Q62K, Q65K, G66D, K74T
VL: B17 VL
notes: Humanized; full-length IgG; see note of AB4-8; also called humanized AB 4-10
B19: AB4-9 (antibody, V domains shown)
VH: B17 VH with A61I, Q62K, Q65K, G66D, K74T
VL: B17 VL
notes: Humanized; full-length IgG; see note of AB4-8; also called humanized AB 4-9
B20: AB4-8 (antibody, V domains shown)
VH: QVQLVQSGAEVKKPGASVKVSCKASGYTFTSYTMHWVRQAPGQGLEWMGYINPSSTYTHYIKKFKDRVTMTADTSTSTVYMELSSLRSEDTAVYYCSRGELGGFAYWGQGTLVTVSS
VL: B17 VL
notes: Humanized; full-length IgG; also called humanized AB 4-8
B21: AB4-11 (antibody, V domains shown)
VH: B17 VH with A61I, Q62K, Q65K, G66D
VL: B17 VL
notes: Humanized; full-length IgG; see note of AB4-8; also called humanized AB 4-11
B22: AB4-7 (antibody, V domains shown)
VH: B17 VH with L45Q
VL: B17 VL
notes: Humanized; also called humanized AB 4-7
B23: AB4-12 (antibody, V domains shown)
VH: B17 VH with L45Q, A61I, Q62K, Q65K, G66D
VL: B17 VL
notes: Humanized; full-length IgG; see note of AB4-8; also called humanized AB 4-12

target: T1, human CLDN6, endogenously expressed on …; assay: FACS, ARK2 cells, 1.5 ug Ab

FACS signal	Binder
11200	B1
10800	B2
22400	B3
10000	B4
97700	B5
51900	B6
33600	B7
2910	B8
1470	B9
9150	B10
38400	B11
4490	B12
1210	B13
1380	B14
1940	B15
1330	B16
9840	B17
20200	B18
7790	B19
7310	B20
9170	B21
7560	B22
24200	B23

target: T1, human CLDN6, endogenously expressed on …; assay: FACS, ARK2 cells, 0.3 ug Ab

FACS signal	Binder
4440	B1
2830	B2
7490	B3
3640	B4
53900	B5
58800	B6
14700	B7
1280	B8
1140	B9
3440	B10
19100	B11
3510	B12
1080	B13
1130	B14
1390	B15
1310	B16
3300	B17
7210	B18
3060	B19
3120	B20
6390	B21
2770	B22
9690	B23

target: T1, human CLDN6, endogenously expressed on …; assay: FACS, OVCA429 cells, 1.5 ug Ab

FACS signal	Binder
44700	B1
27500	B2
54300	B3
34600	B4
177000	B6
85900	B7
2950	B8
1260	B9
25500	B10
64800	B11
3570	B12
2700	B13
3220	B14
6750	B15
4270	B16

target: T2, mouse CLDN6 fused to GFP, expressed on …; assay: FACS, 293T clone with mouse CLDN6

FACS signal	Binder
99700	B1
89300	B2
128000	B3
75900	B4
101000	B5
514000	B6
31700	B7
783	B8
14200	B17
2650	B18
1780	B19
4700	B20
1230	B21
6640	B22
1130	B23
